# Results reported in patent US20210324003A1.
# Columns and labels:
# MT145K gp120 monomer = experiment: ELISA; parameters: unit not given beside the values
# [1] = biological target: MT145K SOSIP.664 trimer (MT145 Q171K); experiment: ELISA; parameters: unit not given beside the values
# [2] = biological target: CRF250 SOSIP trimer (HIV-1 (subtype AG)); experiment: method not stated
substance,measurement,setting,value
CH01,EC50,MT145K gp120 monomer,10 ?
same,EC50,[1],0.187 ?
CH01 UCA BCR (antibody),Kd,[2],0.1 µM
PG9,EC50,MT145K gp120 monomer,0.792 ?
